Source: patent US12428627B2, “Mutant p-hydroxyphenylpyruvate dioxygenase, and coding nucleic acid and use thereof” (Qingdao Kingagroot Chemical Compound Co., Ltd., priority 2018, dated 2025)

Assays:
[1] = system: transgenic rice (Zhonghua 11); assay: Herbicide resistance of transgenic rice seedlings (T0) on medium containing tembotrione; assay type: in vivo; conditions: T0 transgenic seedlings overexpressing the mutant, differentiation medium
Text: (§1) • 1. Construction of overexpression vector • 1) Primers: primers were designed according to the selected restriction sites and the nucleotide sequence of the gene itself to amplify the three-site mutant HPPD (H141R/G342D/D370N) (OsHPPD3M). The designed primers were synthesized by Beijing Qingke Biotechnology Co., Ltd.: HPPD-F, […] ATGCCTCCCACT CCCACCC, HPPD-R, […] GGC. • 2) PCR amplification: the gene of interest was amplified by using the synthesized primer and Q5 DNA polymerase (NEB, New England Biolabs, Boston, USA). The amplified product was assayed by agarose gel electrophoresis, and the product was recovered according to operational instructions of the TIANquick Midi Purification kit. After the completion of the recovery, the concentration of extracted DNA was determined by Nanodrop. • 3) Construction of a rice overexpression vector: the rice overexpression vector pCAMBIA1301-OsHPPD3M was constructed with the recovered HPPD fragments and plasmid pCAMBIA1301 digested by KpnI and HindIII by using the HB-in Fusions™ seamless cloning kit of HanBio Biotechnology Co., Ltd., (Shanghai), and then transformed into the competent E. coli DH5α to obtain a positive clone; the positive clone was transformed into Agrobacterium after sequencing and restriction endonuclease digestion. • 2. […]

transgenic rice = assay: Herbicide resistance of transgenic rice (T0, T1 generation) sprayed with shuangzuocaotong; assay type: in vivo
Text: as §1

B1: H141R/G342D/D370N: three-site mutant rice HPPD (OsHPPD3M) (protein, listed as Oryza sativa)
chain: MPPTPTPTATTGAVSAAAAAGENAGFRLVGHRRFVRANPRSDRFQALAFHHVELWCADAASAAGRFAFALGAPLAARSDLSTGNSAHASLLLRSASVAFLFTAPYGGDHGVGADAATTASIPSFSPGAARRFAADHGLAVRAVALRVADAADAFRASVAAGARPAFQPADLGGGFGLAEVELYGDVVLRFVSHPDGADAPFLPGFEGVSNPGAVDYGLRRFDHVVGNVPELAPVAAYISGFTGFHEFAEFTAEDVGTAESGLNSVVLANNAETVLLPLNEPVHGTKRRSQIQTYLDHHGGPGVQHIALASDDVLGTLREMRARSAMGGFEFLAPPPPNYYDDVRRRAGDVLSEEQINECQELGVLVDRDNQGVLLQIFTKPVGDRPTFFLEMIQRIGCMEKDESGQEYQKGGCGGFGKGNFSELFKSIEEYEKSLEAKQAPTVQGS
modifications: The amino acid sequence of Wild-Type rice HPPD protein (OsHPPD _WT)
B1 was tested, and the “tembotrione concentration in culture medium tolerated (remains green)” value [1] was 3 µM, the “shuangzuocaotong rate tolerated, T0 generation plants” value (transgenic rice; T0 plants expressing the mutant, spraying) was 8-16 grams active ingredient per mu and the “shuangzuocaotong rate tolerated, T1 generation plants” value (transgenic rice; T1 plants expressing the mutant, spraying) was 32-64 grams active ingredient per mu. The “resistance multiple of transgenic rice to HPPD-inhibiting herbicide” value (transgenic rice; overexpression, field rate of shuangzuocaotong 4 g a.i./mu) was “at least 4”.
